# According to paper doi:10.1101/2020.10.15.341636 (bioRxiv, 2020):
# B1: mAb 298 IgG (antibody, V domains shown)
# VH: QVQLVQSGAEVKKPGASVKVSCKASGGTFSTYGISWVRQAPGQGLEWMGWISPNSGGTDLAQKFQGRVTMTRDTSTSTVYMELSSLRSEDTAVYYCASDPRDDIAGGYWGQGTLVTVSS
# VL: not shown
# B2: mAb 324 IgG (antibody, V domains shown)
# VH: QVQLVQSGAEVKKPGASVKVSCKASGGTFNNYGISWVRQAPGQGLEWMGWMNPNSGNTGYAQKFQGRVTMTRDTSTSTVYMELSSLRSEDTAVYYCARVGDYGDYIVSPFDLWGRGTLVTVSS
# VL: DIQMTQSPSSLSASVGDRVTITCRASQSITTYLNWYQQKPGKAPKLLIYDASNLETGVPSRFSGSGSGTDFTLTISSLQPEDFATYYCQQSYSTPPTFGQGTKVEIK
# B3: mAb 236 IgG (antibody, V domains shown)
# VH: QVQLVQSGAEVKKPGASVKVSCKASGGTFTSYGINWVRQAPGQGLEWMGWMNPNSGNTGYAQKFQGRVTMTRDTSTSTVYMELSSLRSEDTAVYYCASRGIQLLPRGMDVWGQGTTVTVSS
# VL: not shown
# B4: mAb 52 IgG (antibody, V domains shown)
# VH: QVQLVQSGAEVKKPGSSVKVSCKASGYTFTSYGISWVRQAPGQGLEWMGGIIPMFGTTNYAQKFQGRVTITADKSTSTAYMELSSLRSEDTAVYYCARDRGDTIDYWGQGTLVTVSS
# VL: DIQMTQSPSSLSASVGDRVTITCRASQGISNNLNWYQQKPGKAPKLLIYAASSLESGVPSRFSGSGSGTDFTLTISSLQPEDFATYYCQQGNGFPLTFGPGTKVDIK
# B5: Fab 298 (Fab, V domains shown)
# VH: B1 VH
# VL: not shown
# B6: Fab 52 (Fab, V domains shown)
# VH: B4 VH
# VL: B4 VL
# Experiments:
# [1] = target: T1, SARS-CoV-2 wild type RBD (BEI NR52309) (Severe acute respiratory syndrome …, UniProt P0DTC2); assay: BLI
# [2] = target: T1, SARS-CoV-2 wild type RBD (BEI NR52309); assay: crystal structure
Binder,binding result [1],binding result [2]
B1,binds,
B2,binds,
B3,binds,
B4,binds,
B5,,binds
B6,,binds
